Measured values as given in PMC10767740, “Recombinant Full-Length TDP-43 Oligomers Retain Their Ability to Bind RNAs, Are Not Toxic, and Do Not Seed TDP-43 Aggregation in Vitro” (ACS Chemical Neuroscience, 2023).

Target: the molecule itself
Experiment: ThT aggregation kinetics + TEM; 5 μM core peptide, 20 μM ThT, with or without 2.5% fibrillar seeds of the same peptide; 25 °C, 40 h, shaken 5 s at 100 rpm before each reading; TEM at the end

B1: TDP-43 core peptide 279–360 (peptide, UniProt Q13148 279-360, looked up)
chain: NPGGFGNQGGFGNSRGGGAGLGNNQGSNMGGGMNFGAFSINPAMMAAAQAALQSSWGMMGMLASQQNQSGPSGNNQNQGNMQ
notes: also called amyloid core peptide; source: lyophilized, disaggregated in HFIP/TFA
binding result: binds
